Data taken from patent US8598081B2, “Specific delivery of agrochemicals” (priority 2010, dated 2013).

Key:
[1] = tested on: surface of black nightshade leaves; test: VHH binding to non-fixed leaf discs, black nightshade; conditions: 5 μg/ml, detection with anti-histidine Alexa-488
Protocol: VHH binding to non-fixed leaf discs of potato (variety Desiree), black nightshade, grass, wheat or azalea was investigated. For comparison, binding of CBM3a to non-fixed leaf discs of potato (variety Desiree) was analyzed in parallel. Leaf discs were prepared by punching a fresh potato leaf with a 5 mm belt hole puncher tool. Leaf discs were put immediately in wells of a 96-well plate containing 200 μl per well 5% MPBS or PBS, and incubated for 30 minutes. Leaf discs were transferred to solutions containing 5 μg/ml VHH antibody fragment, respectively, 5 μg/ml CBM3a in 2% MPBS or PBS and incubated for 60-90 minutes. Unbound VHH or CBM3a proteins were removed by washing three times with 2% MPBS or PBS. Bound VHH or CBM3a proteins were detected with incubation with monoclonal mouse anti-histidine antibodies directly conjugated with Alexa-488 fluorescent dye (Abd Serotec) in 1% MPBS for 1 hour. Unbound antibodies were removed by washing three times with PBS. Leaf discs were put on glass slides, covered with cover slips, and analyzed by microscopy or on a macrozoom microscope system (Nikon) or a SP5 confocal microscope system (Leica).

potato lectin = biological target: T1, potato lectin (Solanum tuberosum, UniProt Q9S8M0); test: ELISA-like assay, microcapsules with monovalent or bivalent VHH, potato lectin; assay type: binding; parameters: Surface area of bound microcapsules: unit not given here; conditions: for Surface area of bound microcapsules: Uvitex microcapsules
T1 construct: purchased Sigma
T1 sequence (Q9S8M0 whole entry, looked up): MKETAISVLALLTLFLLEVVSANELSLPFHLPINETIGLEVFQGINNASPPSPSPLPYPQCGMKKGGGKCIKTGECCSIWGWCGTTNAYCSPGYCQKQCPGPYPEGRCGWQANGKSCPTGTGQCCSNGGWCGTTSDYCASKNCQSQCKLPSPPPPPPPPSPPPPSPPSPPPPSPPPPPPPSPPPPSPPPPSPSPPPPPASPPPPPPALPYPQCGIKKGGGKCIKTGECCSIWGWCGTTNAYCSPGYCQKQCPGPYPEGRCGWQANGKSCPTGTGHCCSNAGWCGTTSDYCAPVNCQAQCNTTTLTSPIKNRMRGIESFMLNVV
Source text: Bivalent VHH constructs were produced in bacteria by cloning two VHH sequences in tandem into the pASF22 vector, creating a fusion of two VHH with a 9 glycine-serine linker (GGGGSGGGS (SEQ ID NO:50)) in between the two VHH. pASF22 is an in-house produced pMES derivative. The tags that were used were C-terminal c-Myc (EQKLISEEDLN (SEQ ID NO:51)) and hexahistidine (HHHHHH (SEQ ID NO:52)). A triple alanine linker (AAA) was placed in between the C-terminal end of the VHH and the c-Myc tag and a glycine-alanine-alanine (GAA) linker was used in between the C-terminal end of the c-Myc tag and the hexahistidine tag. The complete sequence C-terminal of the bivalent VHH that was used: AAA-EQKLISEEDLN-GAA-HHHHHH (SEQ ID NO:53). Fresh overnight cultures were produced by starting from colony streaks and inoculation of 2×TY media supplemented with 2% glucose and 100 μg/ml ampicillin. The overnight cultures were used to inoculate fresh cultures 1:100 in 2×TY media with 0.1% glucose and 100 μg/ml ampicillin. After growing at 37° C. in a shaking incubator for 3 hours, IPTG was added to a 1 mM final concentration and recombinant bivalent VHH were produced during an additional incubation for 4 hours. Cells were spun down and resuspended in 1/50th of the original culture volume of PBS and incubated with head-over-head rotation at 4° C. for 30 minutes. Spheroplasts were spun down by centrifugation at 3,000 g and 4° C. for 20 minutes. Supernatants were transferred to fresh tubes and centrifuged again at 3,000 g and 4° C. for 20 minutes. The supernatant was collected and sodium chloride concentration was adjusted to 500 mM and imidazole concentration to 20 mM. Hexahistidine-tagged bivalent VHH were purified from the extracts using HisTrap FF Crude 5 ml IMAC columns (GE Lifesciences) and HiLoad 16/60 Superdex 75 prep grade gel filtration column (GE Lifesciences) on an AKTAxpress system (GE Lifesciences) following standard procedures.
Next, it was investigated if binding of microcapsules to surfaces could be improved by using targeting agents comprising multivalent VHH. A series of parallel couplings was performed with equal amounts of monovalent VHH, bivalent VHH, and unrelated VHH. Success of coupling of VHH and multivalent VHH were analyzed as described in Example 4. An ELISA-like assay was performed using high bind half area microplates (Greiner Bio-One) coated with 5 μg/well potato lectin. Control wells included blank wells or wells coated with unrelated antigens. Plates were washed three times with PBS with 0.05%-TWEEN®-20 and blocked with 5% skimmed milk in PBS for 1 to 2 hours. VHH-coupled Uvitex-containing microcapsules were diluted to appropriate densities in 1% skimmed milk in PBS with 0.05%-TWEEN®-20. Five-fold serial dilution series were prepared and allowed to bind to the surface to compare binding of microcapsules coupled with monovalent or bivalent VHH. Microcapsules were added to the antigen-coated or control wells and allowed to bind for 1 hour. Unbound microcapsules were removed by washing five times with PBS with 0.05%-TWEEN®-20. The bottoms of ELISA plate wells were analyzed for bound microcapsules on a macrozoom microscope system (Nikon). Microcapsules were counted using Volocity image analysis software (Perkin Elmer). A DAPI filter was used to visualize Uvitex microcapsules. […] The surface area of microcapsules with coupled bivalent VHH was 15-fold above the surface area of blank microcapsules applied at this microcapsule density while the surface area of microcapsules with monovalent VHH was only six-fold above the surface area of blank microcapsules applied at this microcapsule density. This difference could be explained by an increase in binding strength due to additional avidity of the bivalent VHH compared to monovalent VHH, it could also be that the use of bivalent VHH increases flexibility and spacer length of the coupled targeting agents on microcapsules, or a combination of both.

azalea leaf discs = test: Leaf disc binding assay with VHH-coupled microcapsules, azalea; conditions: Uvitex microcapsules
Protocol: A leaf disc binding assay was used to evaluate the interaction of VHH-coupled microcapsules with potato, grass and azalea leaves. ø 8 mm leaf discs were sampled from the leaves of potato pot plants (variety Desiree), from the leaves of greenhouse-grown Lollium perenne and from the leaves of azalea pot plants. Leaf discs were washed three times with PBS. Microcapsules containing lambda cyhalothrin or Uvitex were diluted to appropriate densities in 1% skimmed milk in PBS with 0.05%-TWEEN®-20. Microcapsules were added to the leaf discs and settling of microcapsules and binding of targeting agents allowed for 1 hour. Unbound microcapsules were removed by washing three to five times with PBS with 0.05%-TWEEN®-20.
Leaf discs with Uvitex microcapsules were analyzed for bound microcapsules on a macrozoom microscope system (Nikon). Microcapsules were counted using Volocity image analysis software (Perkin Elmer). A DAPI filter was used to visualize Uvitex microcapsules. Controls for Uvitex microcapsules included blank microcapsules to which no VHH were coupled and microcapsules to which unrelated VHH were coupled.

B1: VHH 3E6: VHH binding gum arabic, potato lectin and leaf surface; SEQ ID NO:7 by order of the list (protein, listed as Lama glama)
VHH: QVQLQESGGGLVQPGGTLSLSCAASGFNVRWYGMGWFRQAPGKEREGVACISALQETTAYADSVKGRFTLSRDNPKNTLSLQMNNLQPEDTGVYYCATTDCDDSSRMTYTSYLGQGTQVTVSS
modifications: 3E6
In the case of B1, the “binding to native black nightshade leaf surface (fluorescence microscopy)” value [1] is reported as “binding leaf surface, glandular trichomes, and leaf hairs” and the “binding to native black nightshade leaf surface (fluorescence microscopy)” value ([1]; listed as 3E6) is reported as “bind specifically”.

B2: Microcapsules containing uvitex OB VHH 3E6: polyurea microcapsules containing the fluorescent tracer Uvitex OB, coupled with (monovalent) VHH 3E6 (conjugate)
VHH: QVQLQESGGGLVQPGGTLSLSCAASGFNVRWYGMGWFRQAPGKEREGVACISALQETTAYADSVKGRFTLSRDNPKNTLSLQMNNLQPEDTGVYYCATTDCDDSSRMTYTSYLGQGTQVTVSS
modifications: left off: small tags and cut ends
notes: polyurea microcapsules containing the fluorescent tracer Uvitex OB, coupled with (monovalent) VHH 3E6
B2 was tested, and the “surface area of bound microcapsules above the surface area of blank microcapsules” value (potato lectin; application of 25-fold less microcapsules, potato lectin) was “six-fold”, the “Surface area of bound microcapsules” value (potato lectin; no coating (first series, with potato lectin rows), surface coverage 100%) was 74.536 and the “Surface area of bound microcapsules” value (potato lectin; potato lectin, surface coverage 4%) was 59.377. For the same molecule, the “Surface area of bound microcapsules” value (potato lectin; potato lectin, surface coverage 20%) was 307.478, the “Surface area of bound microcapsules” value (potato lectin; potato lectin, surface coverage 100%) was 415.773 and the “specific binding of microcapsules to azalea leaf discs” value (azalea leaf discs) was “no specific binding”.
